Results published in patent US10487318.

T1: 33mer peptide (LQLQPFPQPQLPYPQPQLPYPQPQLPYPQPQPF)
T1 chain: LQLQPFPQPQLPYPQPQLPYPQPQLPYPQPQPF

T2: fluorescently quenched α-gliadin hexapeptide analogue QXL520-PQPQLP-K(5-FAM)-NH2
T2 chain: PQPQLP

T3: Glia_56-79 peptide (LQLQPFPQPQLPYPQPQLPY)
T3 chain: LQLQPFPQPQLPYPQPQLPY

T4: α2-gliadin peptide (PQPQLPYSQPQPFR)
T4 chain: PQPQLPYSQPQPFR

T5: α9-gliadin peptide (QLQPFPQPQLPY)
T5 chain: QLQPFPQPQLPY

T6: γ-gliadin peptide (IQPQQPAQL)
T6 chain: IQPQQPAQL

B1: Homologue 16 (NCBI YP_003387700) (protein)
chain: MSAFDQLVPLPGSEKTVPDAAPSQTLDPNEVLTVTIRIRRKRTLASLVSTTAPVTEVVSRSEYASRFGADPAIVKQVEAFASAYDLSLVEQSLARRSVLLRGTVAQMEQAFGVSLANYQLADGTVFRGRTGVVNVPSELVEHIEGVFGLDNRPQARAHFQVYKPEKGTKVAPRAGGISYTPPQLARLYNFPTGVTGKGQCIAIIELGGGFRTADIKTYFGGLGLKPPTVVAVSVDGGHNAPSTADSADGEVMLDIDVAGGVAPGAKIVVYFAPNTDQGFLDAITTAMHDTKNKPSVISISWGAAESNWTPQALTSFNQAFQAAAALGITVCAAAGDTGSDDSVGDGKAHVDFPASSPFVLACGGTKLTATDNVIASEVVWHESKTSATGGGVSDVFDLPDYQQKSHVPPSVNDKTRIGRGVPDVAAVADPVTGYAVRVDGSNLVFGGTSAVAPLMAGLIALINQQRGKAVGFIHPLIYANPSAFRDITQGNNTTTTGNKGYAATTGWDACTGLGVADGKKLASVLTATPVA
B2: Homologue 14 (NCBI YP_001861188) (protein)
chain: HMTKHPLPGSERVLAPGSKVVAQCDPSETIEVVVVLRRKNEQQFAQMMKTIEAGAAGARPLTREELEQRFGALPEDIAKLKAFAAQHGLSVVREDASARTVVLSGRIEQFQQAFDVQLQHYEHQSMGRFRGRTGAISVPDELHGVVTAVLGLDDRPQARPHFRIRPPFQPARAQSASSFTPLQLASLYRFPQGDGSGQCIGIVELGGGYRTADLDSYFSSLGVGSPKVVAVGVDQSGNQPTGDPNGPDGEVTLDIEIAGALAPAATIAVYFTTNSDAGFIDAVSQAVHDRTNQPSVISISWGAPESMWTAQSMKALNDVLQSAAAIGVTVCAASGDSGSSDGVGDGRDHVDFPASSPYVLACGGTSLQGSGRTVAHEVVWNDGSNGGATGGGVSGAFPVPAWQEGLSTSAAQGGQRALTGRGVPDVAGDASPLTGYDVIVDGNNTVIGGTSAVAPLWAALIARINGAKGAPVGFVNPKLYKASACNDITQGNNGSYAATTGWDACTGLGSPDGVKVAAAL
B3: Homologue 12 (NCBI YP_003658449) (protein)
chain: MTQPRYTPLPGSEREAPLLAARSNATAARASRAQTASATVVLRRRSELPEALVLDQQFISSDELAARYGADPVDIEKVRSVLERFKVSVVEVDAASRRVKVEGAVADIERAFNIALHSASGTDPHSGRGFEYRYRTGVLSVPAELGGIVTAVLGLDNRRQAETRLRVVPAAALGSSYTPVQLGEIYNFPQDATGAGQRIAIIELGGGYTPAGLRRYFASLGVVPPKVAAVSVDGAQNAPGPDPGADGEVQLDVEVAGALAPGAHVLVYFAPNTDQGFLDAVSQAAHATPPPTAISISWGASEDSWTASARDALNQALRDAAALGVTVTAAAGDSGSSDGVPDRRAHVDFPASSPYVLATGGTSLRADPATGVVQSETVWNDSQGSTGGGVSDVFPRPAWQAHVDVPHAGRGVPDVSAVADPATGYQVLVDNQPAVIGGTSAVAPLWAALVARLAESLGRPLGLLQPLVYPRTPGSTAYPGFRDITIGNNGAYKAGKGWDAATGLGVPDGTELLAHLRGLNGSE
B4: Kumamolysin-As G319S, D358G, D368H (protein)
chain: MSDMEKPWKEGEEARAVLQGHARAQAPQAVDKGPVAGDERMAVTVVLRRQRAGELAAHVERQAAIAPHAREHLKREAFAASHGASLDDFAELRRFADAHGLALDRANVAAGTAVLSGPVDAINRAFGVELRHFDHPDGSYRSYLGEVTVPASIAPMIEAVLGLDTRPVARPHFRMQRRAEGGFEARSQAAAPTAYTPLDVAQAYQFPEGLDGQGQCIAIIELGGGYDEASLAQYFASLGVPAPQVVSVSVDGASNQPTGDPSGPDGEVELDIEVAGALAPGAKFAVYFAPNTDAGFLDAITTAIHDPTLKPSVVSISWSGPEDSWTSAAIAAMNRAFLDAAALGVTVLAAAGDSGSTGGEQDGLYHVHFPAASPYVLACGGTRLVASGGRIAQETVWNDGPDGGATGGGVSRIFPLPAWQEHANVPPSANPGASSGRGVPDLAGNADPATGYEVVIDGEATVIGGTSAVAPLFAALVARINQKLGKAVGYLNPTLYQLPADVFHDITEGNNDIANRAQIYQAGPGWDPCTGLGSPIGVRLLQALLPSASQPQPGSTENLYFQSGALEHHHHHH
B5: Homologue 17 (NCBI YP_004216463) (protein)
chain: MAATPRFASQPRVTLPGSQKHPLTTDTEVPPPAPVKAAATKLSATPFTVTVIVKRKNPLNLKQVLKPAGRLTHAAFAKAHGPSPDGVKLVKAFAKEFGLTVAPAPGQGRRALYLTGTAAAMQTAFGVTFATKIMEGTKYRVREGDICLPKELIGHVDAVLGLDNRPQAKPHFRHHKPAATSVSYTPVQVGQLYGFPSGAKATGQTIGLIELGGGFRAADITAYFKTLGQTAPKVTAVLVDKAKNTPTTSSSADGEVMLDIEVAAAVAPGANIAVYFAPNTDQGFIDAISQAVHDTVNKPSVISISWGGPESTWTAQSLAALDAACQSAAALGITITVAAGDDGSTDGVKGTVNHVDFPASSPHVLGCGGTKLLGSGTTITSEVVWNELTANEGATGGGVSNVFPLPTWQAKSNVPKPTVAAGGRGVPDVSGNADPSTGYTVRVDGSTFPIGGTSAVAPLWAGLIALCNAQNKTTAGFINPALYAAAAAKSFRDITSGNNGGFKAGPGWDACTGLGSPIGTAIAKTLAPATKSTSKTAVKNAPEIRFRPHKKAPTKTAAKTPALRRLK
B6: Homologue 26 (NCBI YP_004030750) (protein)
chain: MHSYLKQQSHMQSYLEQENHMRSYLEMRKKPYFDDLANIRPGGLTPAQVCQAYQFAKVQPVRPVKLGIVSLAGQYLSSDMSKAFTGYGLPTPVVSTAGSQVLGDLWSNVENMMDIEIAGAAWAYATGTAATLLMQFEPNNETGIPNAINALVAAGCEVISISWGAPANLQTMEAITARKEACKQAAVQNVHVFAASGDESLNDGTNSRTPDDPCCDPNVWGVGGTRLVLQADGSIAQESAWGDGNAADKGGGGGFDSREPLPDYQVGVVHSEHRGSPDSSANADPGTGYAIVANGQWLIGGGTSASAPLTAGYVAAILSTLPGPISQSVLQRKLYTAHKTAFRDILLGSNGAPARPGWEEATGLGSINGPGLAAALQS
B7: Homologue 15 (NCBI YP_002754884) (protein)
chain: MSPIASRRSALPLSERPAPENARALAAVEPDRTMTVSVLVRRKKPLVLADLEGKKLTHREFERRYGASEKDFATIAKFAAGHGLAVDHHASSLARRTVVLRGTARQMQQAFGVTLHDYEDSETQQRYHSFTGAITVPAAHARIIESVLGLDARPIAKPHFRVRKRSAAATGAVSFNPPQVASLYSFPTGVDGSGETIGILELGGGYETSDIQQYFSGLGIQPPTVVAVSVDGAVNAPGNPNGADGEVALDIQVAGSIAPGAKLAVYFAPNTEQGFVDAITTAVHDTANKPSVLSISWGGPESSWPQAAAQSLNNACESAAALGVTITVASGDNGSTDGVQDGQNHVDFPASSPYVLACGGTYLAAVNNGVPQESVWDDLASGGGATGGGVSALFPLPAWQTGANVPGGSMRGVPDVAGDASPESGYNVLVDGQPQVVGGTSAVAPLWAALIALVNQQKGEAAGFVNAALYQNPSAFHDITQGSNGAYAAAPGWDPCTGLGSPMGTAIAKILA
B8: Homologue 13 (NCBI YP_004348568) (protein)
chain: MARHLHAGSEPKVITESKCIGACDPAERIHVTVMLRREGEQALDALVDKLASGDPAAKPVSREDFAKRFGARADDIQHTEAFAKRHQLTVERVDPVQSVVELAGTIAQFENAFGVKLEKYEHHAIGSFRARTGAIALPDELHDAVTAVLGLDTRPQAHPHFRFRPPFQPARSGAGTSYTPLQLASIYNFPEGDGAGQCIALVELGGGYRAADIRQYFEQLGVKPPKLVDVSVNGGRNAPTDDPNGPDGEVALDIEVAGAIAPGATIAVYFAGNSDAGFIQSVNQAIHDSTNRPSVVSISWGGPEASWTQQSITAFNNVLKTAASLGVTVCAASGDSGSSDGLQDGSNHVDFPASSPYVLACGGTTLDAQAGQGIRREVVWNDEAASGGAGGGGVSAVFPAPSYQKGLSAKATGGGSTPLSQRGVPDVAGDASPTTGYIISIAGTTAVLGGTSAVAPLWAALIARINANGKSPVGWANPKLYAQPGAFHDITQGNNGAFAASEGWDACTGLGSPDGAKVAAALQGASGGSQQGRATGA
B9: Homologue 19 (NCBI YP_005056054) (protein)
chain: MPTSSRFASQSRVPLPGSERKPFVPAGAPKAAKTPKVSTAVKTVPATGRIRVSLIVPPKQPLDTKRLGKLDARLSRAQFAARHGADPASVRLVKAFAKEFGLTVEPITQPGRCTVQLSGTCAAMRKAFAISLVEHTTEQGKFRLREGEISLPAELEGHVLAVLGLDNRPQAKPHFRIAKPRATNVSYTPVQVAQMYGFPAGATATGQTIGIIELGGGYRAADLTAYFKTLGLPAPTVTAVPIDGGKNTPGNANGADGEVMLDIEVCAAVAQGAKIAVYFTTNTDQGFIDAITTAVHDSTNKPSVISISWGGPESSWTEQSMTALDAACQAAAAVGVTITVAAGDNGSSDGASGDNVDFPASSPHVLACGGTKLVGSGSTITSEVVWDETSNDEGATGGGVSTVFALPTWQKNANVPSPTTSAGGRGVPDVSGDADPSTGYTIRVDSETTVIGGTSAVAPLWAGLIALANAQNKVAAGFVNPALYAAGAKKAFRDITQGNNGSFSAGPGWDACTGLGSPVGNLVIQAVAPKSTTTKKAKKGKTK
B10: Homologue 5 (NCBI ZP_09078202) (protein)
chain: AGRTSYTPLEVAALYNFPSIHCKDQCIGILELGGGYRPADLQTYFNGLGIPQPNITDVSVGGAANRPTGDPNGPDGEVVLDIEVAAAVTPGAKIAVYFADNSDDGFLNAITTAIHDTRNKPSVISISWGKAEIGWTPQAINAMNQAFRDAAALGVTICCASGDDGSTDRVQDGRYHVDFPASSPYVLACGGTRLESSGSTITQEVVWNEGALGGGATGGGVSDVFDRPNWQANANVPTSANPERRIGRGVPDWAGNADPATGYQILVDGTRAVIGGTSAVAPLFAGLIAIINQKLGHSVGFINPILYNLSAQHNVFHDITSGNNDMSGQNGPYEAQPGWDACTGLGSPDGTKLMNAISEAHRLVSVG

Columns and labels:
[1] = target: T1, 33mer peptide …
[2] = target: T2, fluorescently quenched α-gliadin …
[3] = target: T3, Glia_56-79 peptide …
[4] = target: T4, α2-gliadin peptide (PQPQLPYSQPQPFR)
[5] = target: T5, α9-gliadin peptide (QLQPFPQPQLPY)
[6] = target: T6, γ-gliadin peptide (IQPQQPAQL)

Protein | Degradation pattern of 33mer (60 min) [1] | other results
B1 | WT-like | 
B2 | WT-like - minor | 
B3 | WT-like | 
B4 |  | Fold Change in Activity of PQ Hydrolysis Relative to Wild Type Kumamolysin-As [2]: 7 fold
B5 | WT-like - minor | 
B6 | Max-like | activity against the 33mer peptide [1]: had very strong activity comparable to KumaMax™ at breaking down the 33mer peptide
B7 | WT-like | 
B8 | Max-like | activity against the 33mer peptide [1]: demonstrated significant activity against the 33mer peptide
B9 | WT-like - minor | 
B10 |  | grade and % of peptide after an 80-min incubation [3]: ++; 0.4%; grade and % of peptide after an 80-min incubation [4]: ++ (undetect); grade and % of peptide after an 80-min incubation [5]: ++/-; 34%;; grade and % of peptide after an 80-min incubation [6]: ++/-; 40%
